One molecule from article PMC5510004, “Recruitment and positioning determine the specific role of the XPF‐ERCC1 endonuclease in interstrand crosslink repair” can be followed below.

This data set deals with T1, XPF wild type (xlXPF);ERCC1 wild type (hsERCC1) (Xenopus laevis;Homo sapiens?, UniProt A0A8J0PXV9;P07992 1-897;1-297, |).
T1 sequence 1: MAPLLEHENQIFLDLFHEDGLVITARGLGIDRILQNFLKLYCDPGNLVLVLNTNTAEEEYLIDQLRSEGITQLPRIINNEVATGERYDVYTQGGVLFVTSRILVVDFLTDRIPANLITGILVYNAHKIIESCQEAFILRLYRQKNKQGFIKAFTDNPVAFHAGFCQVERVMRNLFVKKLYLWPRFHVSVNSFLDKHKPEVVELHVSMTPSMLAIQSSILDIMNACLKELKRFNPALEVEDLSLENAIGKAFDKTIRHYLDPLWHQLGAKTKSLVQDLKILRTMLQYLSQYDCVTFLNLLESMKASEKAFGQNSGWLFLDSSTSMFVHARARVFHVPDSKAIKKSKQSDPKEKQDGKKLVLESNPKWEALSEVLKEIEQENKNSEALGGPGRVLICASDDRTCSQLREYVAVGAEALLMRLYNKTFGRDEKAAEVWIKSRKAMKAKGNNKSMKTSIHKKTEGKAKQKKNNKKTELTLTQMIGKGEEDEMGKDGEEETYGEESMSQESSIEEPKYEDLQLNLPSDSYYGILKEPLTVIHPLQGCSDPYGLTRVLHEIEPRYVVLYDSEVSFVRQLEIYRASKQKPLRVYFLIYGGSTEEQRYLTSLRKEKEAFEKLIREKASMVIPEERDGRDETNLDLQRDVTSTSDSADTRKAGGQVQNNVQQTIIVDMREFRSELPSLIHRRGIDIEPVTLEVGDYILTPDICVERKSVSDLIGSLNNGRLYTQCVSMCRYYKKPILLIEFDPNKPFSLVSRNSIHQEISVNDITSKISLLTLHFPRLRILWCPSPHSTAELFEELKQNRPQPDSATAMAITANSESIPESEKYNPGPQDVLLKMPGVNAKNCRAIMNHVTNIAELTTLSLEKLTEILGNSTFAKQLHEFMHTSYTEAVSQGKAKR
T1 sequence 2: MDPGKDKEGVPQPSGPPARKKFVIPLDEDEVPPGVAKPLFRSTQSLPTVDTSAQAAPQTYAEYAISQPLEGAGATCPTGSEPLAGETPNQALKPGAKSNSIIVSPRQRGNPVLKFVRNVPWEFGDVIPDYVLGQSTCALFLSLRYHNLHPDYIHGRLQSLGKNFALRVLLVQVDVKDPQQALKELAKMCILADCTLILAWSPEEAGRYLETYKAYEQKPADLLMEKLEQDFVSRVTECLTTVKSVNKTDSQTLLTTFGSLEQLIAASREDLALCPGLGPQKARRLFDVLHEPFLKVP
Put plainly: fluorescence anisotropy; 2 mM Ca2+; 25 mM Hepes pH 8.0, 15% glycerol, 0.1 mg/ml BSA, 2 mM CaCl2, 10 nM DNA, 1 h at room temperature. Conditions: protein: recombinant;recombinant; tags: FLAG;His; copies: 1;1; label: 5'-FAM on F1; three strands 1:1:1. A general note: In fluorescence polarisation assays a small probe gives low polarisation when free and higher when bound to something large.

B1: 3' flap DNA substrate (F1+F2+F3) (dsDNA)
DNA 1: CGCGATGCGGATCCAA
DNA 2: CCTAGACTTAAGAGGCCAGACTTGGATCCGCATCGC
DNA 3: GGCCTCTTAAGTCTAGG
Regarding B1, the binding result was “binds”.
